Reference: PMC2172285

Target: cortactin, endogenous in hE-CHO cells (hamster (endogenous in CHO))
Experiment: co-IP

percent of total cellular E-cadherin found in the cortactin immunoprecipitates: 1 to 2%
Substance: human E-cadherin stably expressed in CHO cells (hE-CHO cells) (from UniProt P12830 155-882) (receptor)
